{"source": "patent US20210388110A1", "about": "(published 2021)", "binders": {"B1": {"name": "TR01H040-E22Hh/none-Hi-Kn010G3/L0000-k0 (antibody, human IgG1, kappa, L234A L235A, N297A)", "heavy": "QVQLVESGGGLVQPGRSLRLSCAASGFTFSNAWMHWVRQAPGKGLEWVAQIKDKSQNYATYYAESVKGRFTISRADSKNSIYLQMNSLKTEDTAVYYCRYVHYSASYGVDAWGQGTTVTVSSASTKGPSVFPLAPSSKSTSGGTAALGCLVKDYFPEPVTVSWNSGALTSGVHTFPAVLQSSGLYSLSSVVTVPSSSLGTQTYICNVNHKPSNTKVDKKVEPKSCDKTHTCPPCPAPEAAGGPSVFLFPPKPKDTLMISRTPEVTCVVVDVSHEDPEVKFNWYVDGVEVHNAKTKPREEQYASTYRVVSVLTVLHQDWLNGKEYKCKVSNKALPAPIEKTISKAKGQPREPQVYTLPPSRCELTKNQVSLSCAVKGFYPSDIAVEWESNGQPENNYKTTPPVLDSDGSFFLVSKLTVDKSRWQQGNVFSCSVMHEALHNHYTQKSLSLSPDYKDDDDK", "chain": "EPKSSDKTHTCPPCPAPELLGGPSVFLFPPKPKDTLMISRTPEVTCVVVDVSHEDPEVKFNWYVDGVEVHNAKTKPREEQYNSTYRVVSVLTVLHQDWLNGKEYKCKVSNKALPAPIEKTISKAKGQPREPQVCTLPPSRDELTKNQVSLWCLVKGFYPSDIAVEWESNGQPENNYKTTPPVLDSDGSFFLYSKLTVDKSRWQQGNVFSCSVMHEALHNRYTQKSLSLSP", "light": "DIVMTQSPLSLPVTPGEPASISCRSSQSLVHSNRNTYLHWYQQKPGQAPRLLIYKVSNRFSGVPDRFSGSGSGTDFTLKISRVEAEDVGVYYCGQGTQVPYTFGQGTKLEIKRTVAAPSVFIFPPSDEQLKSGTASVVCLLNNFYPREAKVQWKVDNALQSGNSQESVTEQDSKDSTYSLSSTLTLSKADYEKHKVYACEVTHQGLSSPVTKSFNRGEC", "notes": "single-arm"}, "B2": {"name": "CE115HA121-E22Hh//-Hi-Kn010G3/L0000-k0 (antibody, human IgG1, kappa, L234A L235A, N297A)", "heavy": "B1 heavy with L11V, Q50L, D53A, Q56N, A75D, I81L, S104G, S106Y", "chain": "B1 chain", "light": "B1 light", "notes": "single-arm"}, "B3": {"name": "CE115HA192-E22Hh//-Hi-Kn010G3/L0000-k0 (antibody, human IgG1, kappa, L234A L235A, N297A)", "heavy": "B1 heavy with L11V, D53A, Q56N, A75D, I81L, S104Y, S106Y", "chain": "B1 chain", "light": "B1 light", "notes": "single-arm"}, "B4": {"name": "CE115HA251-E22Hh//-Hi-Kn010G3/L0000-k0 (antibody, human IgG1, kappa, L234A L235A, N297A)", "heavy": "B1 heavy with L11V, D53A, Q56N, A75D, I81L, S104Y, A105Y, S106Y", "chain": "B1 chain", "light": "B1 light", "notes": "single-arm"}, "B5": {"name": "H0610-G1dh/none-Hi-Kn010G3/L0259-k0 (antibody, human IgG1, kappa)", "heavy": "not shown", "chain": "B1 chain", "light": "B1 light with L29P, L38I, G94T", "notes": "single-arm (one Fab)"}, "B6": {"name": "H0610-G1dh/none-Hi-Kn010G3/L0261-k0 (antibody, human IgG1, kappa)", "heavy": "not shown", "chain": "B1 chain", "light": "B1 light with L29P, L38I, H39Q, G94T", "notes": "single-arm (one Fab)"}, "B7": {"name": "H0610-G1dh/none-Hi-Kn010G3/L0262-k0 (antibody, human IgG1, kappa)", "heavy": "not shown", "chain": "B1 chain", "light": "B1 light with S28P, L29P, G94A", "notes": "single-arm (one Fab)"}, "B8": {"name": "H0610-G1dh/none-Hi-Kn010G3/L0263-k0 (antibody, human IgG1, kappa)", "heavy": "not shown", "chain": "B1 chain", "light": "B1 light with L29P, L38I, G94A", "notes": "single-arm (one Fab)"}, "B9": {"name": "H0610-G1dh/none-Hi-Kn010G3/L0264-k0 (antibody, human IgG1, kappa)", "heavy": "not shown", "chain": "B1 chain", "light": "B1 light with S25P, L29P, G94A", "notes": "single-arm (one Fab)"}, "B10": {"name": "H0610-G1dh/none-Hi-Kn010G3/L0265-k0 (antibody, human IgG1, kappa)", "heavy": "not shown", "chain": "B1 chain", "light": "B1 light with L29P, L38I, H39Q, G94A", "notes": "single-arm (one Fab)"}, "B11": {"name": "H0610-G1dh/none-Hi-Kn010G3/L0266-k0 (antibody, human IgG1, kappa)", "heavy": "not shown", "chain": "B1 chain", "light": "B1 light with S28P, L29P, G94V", "notes": "single-arm (one Fab)"}, "B12": {"name": "H0610-G1dh/none-Hi-Kn010G3/L0267-k0 (antibody, human IgG1, kappa)", "heavy": "not shown", "chain": "B1 chain", "light": "B1 light with S25P, L29P, G94V", "notes": "single-arm (one Fab)"}, "B13": {"name": "H0610-G1dh/none-Hi-Kn010G3/L0268-k0 (antibody, human IgG1, kappa)", "heavy": "not shown", "chain": "B1 chain", "light": "B1 light with L29P, L38I, H39Q, G94V", "notes": "single-arm (one Fab)"}, "B14": {"name": "H0610-G1dh/none-Hi-Kn010G3/L0269-k0 (antibody, human IgG1, kappa)", "heavy": "not shown", "chain": "B1 chain", "light": "B1 light with L29P, L38I, H39Q", "notes": "single-arm (one Fab)"}, "B15": {"name": "H0610-G1dh/none-Hi-Kn010G3/TR01L008-k0 (antibody, human IgG1, kappa)", "heavy": "not shown", "chain": "B1 chain", "light": "B1 light with R24Q, S25A, Q27E, S61R", "notes": "single-arm (one Fab)"}, "B16": {"name": "H0610-G1dh/none-Hi-Kn010G3/TR01L009-k0 (antibody, human IgG1, kappa)", "heavy": "not shown", "chain": "B1 chain", "light": "B1 light with Q42L, A48S, R50Q, S61R", "notes": "single-arm (one Fab)"}, "B17": {"name": "H0610-G1dh/none-Hi-Kn010G3/TR01L010-k0 (antibody, human IgG1, kappa)", "heavy": "not shown", "chain": "B1 chain", "light": "B1 light with S61R, L109V, K112E", "notes": "single-arm (one Fab)"}, "B18": {"name": "H0610-G1dh/none-Hi-Kn010G3/TR01L011-k0 (antibody, human IgG1, kappa)", "heavy": "not shown", "chain": "B1 chain", "light": "B1 light with R24Q, S25A, Q27E, S61R, L109V, K112E", "notes": "single-arm (one Fab)"}, "B19": {"name": "H0610-G1dh/none-Hi-Kn010G3/TR01L012-k0 (antibody, human IgG1, kappa)", "heavy": "not shown", "chain": "B1 chain", "light": "B1 light with Q42L, A48S, R50Q, S61R, L109V, K112E", "notes": "single-arm (one Fab)"}, "B20": {"name": "H0610-G1dh/none-Hi-Kn010G3/TR01L015-k0 (antibody, human IgG1, kappa)", "heavy": "not shown", "chain": "B1 chain", "light": "B1 light with L29P, Q42L, A48S, R50Q", "notes": "single-arm (one Fab)"}, "B21": {"name": "H0610-G1dh/none-Hi-Kn010G3/TR01L016-k0 (antibody, human IgG1, kappa)", "heavy": "not shown", "chain": "B1 chain", "light": "B1 light with L29P, Q42L, A48S, R50Q, G94Y", "notes": "single-arm (one Fab)"}, "B22": {"name": "H0610-G1dh/none-Hi-Kn010G3/TR01L017-k0 (antibody, human IgG1, kappa)", "heavy": "not shown", "chain": "B1 chain", "light": "B1 light with L29P, L38I, H39Q, Q42L, A48S, R50Q, G94Y", "notes": "single-arm (one Fab)"}, "B23": {"name": "H0610-G1dh/none-Hi-Kn010G3/TR01L018-k0 (antibody, human IgG1, kappa)", "heavy": "not shown", "chain": "B1 chain", "light": "B1 light with R24Q, S25A, Q27E, L29P, Q42L, A48S, R50Q", "notes": "single-arm (one Fab)"}, "B24": {"name": "H0610-G1dh/none-Hi-Kn010G3/TR01L019-k0 (antibody, human IgG1, kappa)", "heavy": "not shown", "chain": "B1 chain", "light": "B1 light with R24Q, S25A, Q27E, L29P, Q42L, A48S, R50Q, G94Y", "notes": "single-arm (one Fab)"}, "B25": {"name": "H0610-G1dh/none-Hi-Kn010G3/TR01L020-k0 (antibody, human IgG1, kappa)", "heavy": "not shown", "chain": "B1 chain", "light": "B1 light with R24Q, S25A, Q27E, L29P, L38I, H39Q, Q42L, A48S, R50Q, G94Y", "notes": "single-arm (one Fab)"}, "B26": {"name": "H0610-G1dh/none-Hi-Kn010G3/L0000vk1-k0 (antibody, human IgG1, kappa)", "heavy": "not shown", "chain": "B1 chain", "light": "DIQMTQSPSSLSASVGDRVTITCRSSQSLVHSNRNTYLHWYQQKPGKAPKLLIYKVSNRFSGVPSRFSGSGSGTDFTFTISSLQPEDIATYYCGQGTQVPYTFGQGTKVEIKRTVAAPSVFIFPPSDEQLKSGTASVVCLLNNFYPREAKVQWKVDNALQSGNSQESVTEQDSKDSTYSLSSTLTLSKADYEKHKVYACEVTHQGLSSPVTKSFNRGEC", "notes": "single-arm (one Fab)"}}, "note": "Where a chain is given by its changes, count along the chain named."}
{"biological_target": "T1, soluble human CD3ε chain (human, UniProt P07766 23-126, limits assumed)", "T1 construct": "the text says soluble human CD3ε chain; also called human CD3 epsilon chain", "T1 sequence (P07766 23-126 limits assumed)": "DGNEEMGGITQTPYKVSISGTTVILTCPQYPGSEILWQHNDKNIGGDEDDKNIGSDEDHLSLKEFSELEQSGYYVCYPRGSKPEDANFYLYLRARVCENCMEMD", "experiment": "SPR (Biacore)", "units": {"Kd": "nM"}}
{"binder": "B1", "Kd": 36}
{"binder": "B2", "Kd": 67.6}
{"binder": "B3", "Kd": 50.5}
{"binder": "B4", "Kd": 22.3}
{"biological_target": "T2, soluble human GPC3 (human, UniProt P51654 25-563, limits assumed)", "T2 construct": "soluble human GPC3 as analyte; also called glypican 3", "T2 sequence (P51654 other isoform, or with tags, fused parts or gaps limits assumed, form in doubt)": "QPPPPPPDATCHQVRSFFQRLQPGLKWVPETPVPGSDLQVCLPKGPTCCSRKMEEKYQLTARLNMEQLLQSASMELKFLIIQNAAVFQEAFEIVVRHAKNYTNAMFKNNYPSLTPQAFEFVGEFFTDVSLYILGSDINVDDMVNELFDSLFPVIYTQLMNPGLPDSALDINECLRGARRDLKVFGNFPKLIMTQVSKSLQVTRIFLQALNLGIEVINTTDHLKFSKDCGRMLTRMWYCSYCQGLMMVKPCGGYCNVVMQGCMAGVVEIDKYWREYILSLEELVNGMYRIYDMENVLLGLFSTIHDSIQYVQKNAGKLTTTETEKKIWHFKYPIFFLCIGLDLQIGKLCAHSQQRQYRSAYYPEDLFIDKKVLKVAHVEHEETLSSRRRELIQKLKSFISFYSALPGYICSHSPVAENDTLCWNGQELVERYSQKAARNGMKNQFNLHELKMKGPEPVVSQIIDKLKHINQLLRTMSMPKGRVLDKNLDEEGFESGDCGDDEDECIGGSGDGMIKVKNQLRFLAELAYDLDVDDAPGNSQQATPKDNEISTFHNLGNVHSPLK", "experiment": "SPR (Biacore), soluble human GPC3", "units": {"Kd": "nM"}}
{"binder": "B5", "Kd": 0.334}
{"binder": "B6", "Kd": 0.0107}
{"binder": "B7", "Kd": 0.211}
{"binder": "B8", "Kd": 0.564}
{"binder": "B9", "Kd": 0.219}
{"binder": "B10", "Kd": 0.0087}
{"binder": "B11", "Kd": 0.213}
{"binder": "B12", "Kd": 0.179}
{"binder": "B13", "Kd": 0.0169}
{"binder": "B14", "Kd": 0.459}
{"binder": "B15", "Kd": 3.48}
{"binder": "B16", "Kd": 3.81}
{"binder": "B17", "Kd": 2.92}
{"binder": "B18", "Kd": 4.02}
{"binder": "B19", "Kd": 4.25}
{"binder": "B20", "Kd": 2.16}
{"binder": "B21", "Kd": 1.08}
{"binder": "B22", "Kd": 0.00827}
{"binder": "B23", "Kd": 2.17}
{"binder": "B24", "Kd": 1.15}
{"binder": "B25", "Kd": 0.0224}
{"binder": "B26", "Kd": 2.16}
